The results in this text go back to patent US20240043859A1, “HERBICIDE-RESISTANT PROTEIN, AND GENE AND USE THEREOF” (QINGDAO KINGAGROOT CHEMICAL COMPOUND CO., LTD., priority 2020, published 2024).

The subject of the experiment is maize B104. Put plainly: Herbicide-resistance capacity testing of transgenic maize (spray). It is filed as in vivo. To be noted: 2,4-D 4.48 kg/ha foliage spray, 14 days / 15 days after spraying. The source says:
1. Vector construction: the overexpression vector was altered from pCambia3300, containing a Bar resistance gene that can be used as a selection marker for bialaphos (glufosinate). The AAD-like gene, QYD42, SEQ ID NO. 83, was linked to the pCambia3300 at the BamH I restriction site by seamless cloning to construct the transgenic vector pQY2329, of which the expression cassette consisted of a maize ubiquitin-1 promoter, the AAD gene and a Nos terminator, as shown in FIG. 7-1.
2. Genetic transformation of maizes: Maize transformation was carried out by the Agrobacterium-mediated immature embryo transformation method (Jones T, Lowe K, Hoerster G, et al. Maize Transformation Using the Morphogenic Genes Baby Boom and Wuschel2. Methods Mol Biol. 2019; 1864:81-93. Doi: 10.1007/978-1-4939-8778-8 6). The Agrobacterium (EHA105) comprising the pQY2329 overexpression vector was inoculated into YEP liquid medium (containing 25 mg/L Rifampicin and 50 mg/L Kanamycin), and shaking-cultured a t 28° C., 220 rmp/min overnight until the OD600 was about 1.0-1.5, then centrifuged at 6000 rmp/min for 10 min to collect the cells into a 50 ml centrifuge tube (sterilized). After discarding the supernatant, the cells were resuspended using MS infect culture medium (containing 68.5 g/L sucrose, 36 g/L glucose, pH 5.8) to OD550=0.8. […]

Entries after “also recorded” stand apart in the source; their conditions may differ.

B1: QYD42: AAD-like enzyme, SEQ ID NO. 83; expressed from vectors pQY2309 (Arabidopsis), pQY2329 (maize), pQY2330 (soybean) (protein)
chain: MQITPIADATFGATVTGLRLATLDDAGFARLHAAWLQHALLVFPGQFLTNAEQIGFAKRFGPIERIGGGDIVAISNVKADGTVRQHSPAEWDDMMKVIVGNMAWHADSTYMPVMAQGAVFSAEVVPPTGGRTCFADMRAAYDALDDATRALVHQRSARHSLVYSQSKLGHVQQAGSAYVGYGMDTTATPLRPLVKRHPETGRLSLLIGRHAHAIPGLEEAESERFLEDLVAWACQPPRVVAHHWTAGDVVLWDNRCLLHRAEPWDFTLPRVMWHSRLAGHPETEAAPLV
modifications: Synthetic polypeptide, QYD42, D42
Turning to B1, the “Resistance of T1 transgenic maize to 2,4-D (spray)” value is “grew normally without any growth inhibition; also recorded: no apparent deformity”.
